Read-outs that look alike come from different tables or passages of the source.
B1: rIL-12: Recombinantly expressed murine IL-12 (Genetics Institute) (protein, UniProt P43431 23-215; P43432 23-335, looked up)
Interleukin-12 subunit alpha: RVIPVSGPARCLSQSRNLLKTTDDMVKTAREKLKHYSCTAEDIDHEDITRDQTSTLKTCLPLELHKNESCLATRETSSTTRGSCLPPQKTSLMMTLCLGSIYEDLKMYQTEFQAINAALQNHNHQQIILDKGMLVAIDELMQSLNHNGETLRQKPPVGEADPYRVKMKLCILLHAFSTRVVTINRVMGYLSSA
Interleukin-12 subunit beta: MWELEKDVYVVEVDWTPDAPGETVNLTCDTPEEDDITWTSDQRHGVIGSGKTLTITVKEFLDAGQYTCHKGGETLSHSHLLLHKKENGIWSTEILKNFKNKTFLKCEAPNYSGRFTCSWLVQRNMDLKFNIKSSSSSPDSRAVTCGMASLSAEKVTLDQRDYEKYSVSCQEDVTCPTAEETLPIELALEARQQNKYENYSTSFFIRDIIKPDPPKNLQMKPLKNSQVEVSWEYPDSWSTPHSYFSLKFFVRIQRKKEKMKETEEGCNQKGAFLVEKTSTEVQCKGGNVCVQAQDRYYNSSCSKWACVPCRVRS
B2: GM-CSF: Recombinant murine granulocyte macrophage colony stimulating factor (protein, UniProt P01587 18-141, looked up)
Granulocyte-macrophage …: APTRSPITVTRPWKHVEAIKEALNLLDDMPVTLNEEVEVVSNEFSFKKLTCVQTRLKIFEQGLRGNFTKLKGALNMTASYYQTYCPPTPETDCETQVTTYADFIDSLKTFLTDIPFECKKPGQK

Legend:
T1SP10MN(A) (−Cys) [1] = details: for Vaginal lavage reciprocal anti-T1SP10MN(A) (−Cys) IgA endpoint titer / Vaginal lavage reciprocal anti-T1SP10MN(A) (−Cys) IgG endpoint titer: Experiment 2, pooled, n=5 Balb/c, 15 days after secondary immunization
Method: Animals were bled prior to initial immunization, and at indicated time points. Serum was analyzed from individual mice, or as pools from mice within groups. Vaginal lavage was performed on euthanized mice to assess antibody levels. This was accomplished by instillation of 75:1 RPMI-10 into the vaginal vault of female mice using a 200:1 pipette. The vault was washed by repeated delivery and removal of fluid, which was then added to 10:1 of FBS. Vaginal lavage were analyzed as pools.
For analysis of HIV peptide-specific antibody and subclass distribution, peptide was suspended in either carbonate buffer (15 mM Na2CO3, 35 mM NaHCO3, pH 9.6), or PBS, at a concentration of 1 μg/ml and plated to 96 well microtiter plates (Nunc) in a volume of 100:1. After overnight incubation at 37° C., plates were washed, and blocked (0.1% gelatin/PBS) at room temperature for 2-4 hours. ELISA plates were washed with wash buffer (PBS, 0.1% Tween™20) before addition of serially diluted serum (PBS, 0.1% gelatin, 0.05% Tween™20, 0.02% sodium azide). After a four hour incubation, wells were washed and appropriate dilutions of biotinylated anti-isotype/subclass antibodies were added for incubation at 4° C. overnight. Wells were washed and incubated with strepavidin-conjugated horseradish peroxidase. After incubation, wells were washed, and developed with ABTS. Wells were read at 405 nm. Titers were standardized using control sera.
Vaginal IgG and IgA anti-peptide antibody titers were measured from lavage obtained 2 weeks after final immunization. Groups of 5 Balb/c female mice were immunized with 25 μg T1SP10MN(A) (−Cys) and the indicated adjuvant formulations on days 0, 28, and 42. Vaginal antibody titers were determined from pool d lavage fluid.
HIV peptide-specific vaginal lavage endpoint reciprocal endpoint IgG and IgA antibody titers were measured from pooled serum (n=5 Balb/c) 15 days after secondary immunization. […] Aqueous MPL™ was delivered at 50 μg per dose. Recombinant murine IL-12 was delivered at 40 ng/mouse. Recombinant murine GM-CSF was delivered at 10 μg/mouse.
Vaginal IgG and IgA anti-peptide antibody titers were measured from lavage 41 days after initial immunization, 13 days after secondary immunization.

spleen cells [2] = assay: Secretion of IL-4 by spleen cells (ELISA); format: cell-based, Balb/c mice; details: for Secretion of IL-4, Con A 5 μg/ml / Secretion of IL-4, HIV Peptide 1.1 μg/ml / Secretion of IL-4, HIV Peptide 3.3 μg/ml / Secretion of IL-4, HIV Peptide 10 μg/ml: Experiment 2, 96 hours culture, after subtraction of lysozyme value; for Secretion of IL-4, HIV Peptide 1.1 μg/ml / Secretion of IL-4, HIV Peptide 3.3 μg/ml / Secretion of IL-4, HIV Peptide 10 μg/ml: bd = below limit of detection; for Secretion of IL-4, Con A 1 μg/ml: Experiment 1, Three Day Cultures, detection limit 22 Units/ml
Method: (§1) For proliferation assays and in vitro cytokine analysis, spleen cells were obtained from mice at the indicated time points. Single cell suspensions were prepared from pools of 3-5 mice as indicated in Results. For proliferation and cytokine analysis, cells were suspended in round bottom 96 well culture plates precoated overnight with HIV peptide antigens, control proteins, or RPMI-10 only. Spleen cells were added at 5×10^5 cells/well using culture medium having 2× supplements. Cell culture supernatants were harvested from triplicate wells for cytokine analysis three or six days after culture initiation. Immediately after supernatant harvest, cultures were pulsed with ^3H-thymidine for 18-24 hours, and harvested to quantify cell proliferation.
For cytokine analysis, cell culture supernatants were added to wells coated with BVD6-11B11 (for anti-IL4), or R4-6A2 (for interferon-gamma). After incubation and washing, wells were developed using biotin-labeled BVD6-24G2 (for IL4) or XMG 1.2 (for interferon-gamma). The concentration of cytokines was determined using a standard curve prepared from recombinant murine interferon-gamma or interleukin-4. All cytokine reagents were purchased from Pharmingen (San Diego, Calif.).
Interleukin-4 secreted into culture by spleen cells stimulated with 25 μg T1SP10MN(A) (−Cys) was measured. Spleen cells were harvested from pools of five Balb/c female mice and cultured with the indicated antigenic stimuli (50 ng IL-12, 10 μg GM-CSF, 50 μg MPL™ as indicated) for either three or six days. Interleukin-4 levels were determined by ELISA, and compared to a standard having a known concentration. Blank wells indicate that the assay could not detect Interleukin-4 from those culture conditions. The lower limit of detection sensitivity was 22 Units/ml.
Cells were cultured for a total of 96 hours. Cell culture supernatants were analyzed for IL-4 by ELISA. All values were after subtraction from those determined from supernatants of cells stimulated with 10 μg of an irrelevant protein (lysozyme). Results which were below the limit of detection, after subtraction from stimulation induced with lysozyme are indicated as “bd”. The adjuvants were 40 ng IL-12, 10 μg GM-CSF and 50 μg MPL™.

spleen cells [3] = format: cell-based, Balb/c mice; details: for Spleen cell proliferation index normalized to ConA, Con A 5 μg/ml / Spleen cell proliferation index normalized to ConA, HIV Peptide 1.1 μg/ml / Spleen cell proliferation index normalized to ConA, HIV Peptide 3.3 μg/ml / Spleen cell proliferation index normalized to ConA, HIV Peptide 10 μg/ml / Spleen cell proliferation index normalized to ConA, Lysozyme 10 μg/ml: Experiment 2, 96 hours culture; for Spleen cell proliferation index normalized to ConA, HIV Peptide 1.1 μg/ml / Spleen cell proliferation index normalized to ConA, HIV Peptide 3.3 μg/ml / Spleen cell proliferation index normalized to ConA, HIV Peptide 10 μg/ml / Spleen cell proliferation index normalized to ConA, Lysozyme 10 μg/ml: values in parentheses are less than unstimulated cells; for Spleen cell proliferation, Con A 1 μg/ml / Spleen cell proliferation, HIV Peptide 1.1 μg/ml / Spleen cell proliferation, HIV Peptide 3.3 μg/ml / Spleen cell proliferation, HIV Peptide 10 μg/ml: Experiment 1, immunized days 0 and 28, culture day 56, 96 hours
Method: as §1
Groups of five Balb/c female mice were immunized with 25 μg T1SP10MN(A) (−Cys) and the indicated adjuvants on days 0 and 28. Spleen cells were established in culture on day 56, and harvested for measurement of ^3H-thymidine incorporation 96 hours later. Mice were immunized with 50 ng IL-12, […], 50 μg MPL™ in an aqueous formulation, or as a stable emulsion with 2% SE. Data are presented as the delta cpm values as compared to proliferation values measured from cells grown in culture without stimulation.
Cells were cultured for a total of 96 hours. ^3H-thymidine was added to cultures for the last 18 hours. Data are presented as a proliferation index normalized to cells stimulated in culture with ConA ([mean cpm Antigen/mean cpm ConA]−[mean cpm medium/mean cpm ConA])×100. As a result, cells cultured in medium have a background proliferation of 0. Proliferation values less than cells grown in culture unstimulated are in parentheses.

T1SP10MN(A) (−Cys) [4] = details: Experiment 3; pooled, n=5 Swiss-Webster; 15 days after secondary immunization
Method: The protocols of Experiment 2 were followed, with Swiss-Webster mice used instead of Balb/c mice. Only reciprocal anti-peptide IgG endpoint titers and vaginal lavage endpoint reciprocal endpoint IgG and IgA antibody titers were measured in this experiment.
Aqueous MPL™ was delivered at 50 μg per dose. Recombinant murine IL-12 was delivered at 40 ng/mouse. Recombinant murine GM-CSF was delivered at 10 μg/mouse.

[5] = Experiment 4, Balb/c, day 41, 13 days after secondary immunization
[6] = Experiment 1, pooled lavage, 5 Balb/c, immunized days 0, 28, 42, 2 weeks after final immunization

| Molecule | Vaginal lavage reciprocal anti-T1SP10MN(A) (−Cys) IgA endpoint titer (T1SP10MN(A) (−Cys) [1]) | Vaginal lavage reciprocal anti-T1SP10MN(A) (−Cys) IgG endpoint titer (T1SP10MN(A) (−Cys) [1]) | Vaginal lavage IgA anti-T1SP10MN(A) (−Cys) antibody titer (T1SP10MN(A) (−Cys) [1]; [5]) | Vaginal lavage IgG anti-T1SP10MN(A) (−Cys) antibody titer (T1SP10MN(A) (−Cys) [1]; [5]) | Secretion of IL-4, Con A 5 μg/ml (spleen cells [2]) | Secretion of IL-4, HIV Peptide 1.1 μg/ml (spleen cells [2]) | Secretion of IL-4, HIV Peptide 3.3 μg/ml (spleen cells [2]) | Secretion of IL-4, HIV Peptide 10 μg/ml (spleen cells [2]) | Spleen cell proliferation index normalized to ConA, Con A 5 μg/ml (spleen cells [3]) | Spleen cell proliferation index normalized to ConA, HIV Peptide 1.1 μg/ml (spleen cells [3]) | Spleen cell proliferation index normalized to ConA, HIV Peptide 3.3 μg/ml (spleen cells [3]) | Spleen cell proliferation index normalized to ConA, HIV Peptide 10 μg/ml (spleen cells [3]) | Spleen cell proliferation index normalized to ConA, Lysozyme 10 μg/ml (spleen cells [3]) | Vaginal lavage reciprocal anti-HIV peptide IgA endpoint titer (T1SP10MN(A) (−Cys) [4]) | Vaginal lavage reciprocal anti-HIV peptide IgG endpoint titer (T1SP10MN(A) (−Cys) [4]) | Vaginal lavage IgA anti-T1SP10MN(A) (−Cys) antibody titer (T1SP10MN(A) (−Cys) [1]; [6]) | Vaginal lavage IgG anti-T1SP10MN(A) (−Cys) antibody titer (T1SP10MN(A) (−Cys) [1]; [6]) | Secretion of IL-4, Con A 1 μg/ml (spleen cells [2]) | Spleen cell proliferation, Con A 1 μg/ml (spleen cells [3]) | Spleen cell proliferation, HIV Peptide 1.1 μg/ml (spleen cells [3]) | further results |
| --- | --- | --- | --- | --- | --- | --- | --- | --- | --- | --- | --- | --- | --- | --- | --- | --- | --- | --- | --- | --- | --- |
| 3-O-deacylated monophosphoryl lipid A [MPL ™] | <10 | <10 | <10 | 12 | 286 pg/mL | 17 pg/mL | bd | 5 pg/mL | 99.2 | 0.5 | 1.4 | 1.0 | 0.4 | <10 | <10 |  |  |  |  |  |  |
| B1 | <10 | <10 | <10 | <10 | 411 pg/mL | 15 pg/mL | bd | bd | 99.1 | 0.5 | 0.2 | 0.2 | 0.2 | <10 | <10 | <20 | <20 | 156 Units/ml | 42,612 delta cpm | 308 delta cpm | Spleen cell proliferation, HIV Peptide 3.3 μg/ml (spleen cells [3]): 692 delta cpm; Spleen cell proliferation, HIV Peptide 10 μg/ml (spleen cells [3]): 809 delta cpm |
| B2 | <10 | 26 | <10 | <10 | 226 pg/mL | 36 pg/mL | 9 pg/mL | bd | 99.0 | 1.6 | 2.7 | 6.8 | 0.1 | <10 | <10 | <20 | <20 | 159 Units/ml | 55,578 delta cpm | 14,249 delta cpm | Spleen cell proliferation, HIV Peptide 3.3 μg/ml (spleen cells [3]): 19,784 delta cpm; Spleen cell proliferation, HIV Peptide 10 μg/ml (spleen cells [3]): 25,821 delta cpm |

— patent US7611721B1, “Adjuvant combination formulations” (priority 2000, dated 2009)
